Each block holds one molecule with its values, some of them ahead of it. Where a SMILES comes first, the peptide text is derived from it. [ ]: non-standard residue; d: D form. The star is where a group is joined. Benzoyl(4-F) = O=C(c1ccc(F)cc1)*; pGlu = O=C1CC[C@@H](C(=O)O)N1
Columns and labels:
[1] = biological target: T1, bovine type I atelocollagen (Bos taurus, UniProt P02453+P02465, DEL1103-1117); assay: SPR binding of telopeptide derivatives to immobilized atelocollagen; conditions: for ka1: SPR Biacore T100, CM5 chip, analyte 45 to 950 μM, HEPES buffer pH 7.4, 25°C; for ka1 / ka2 / kd1 / kd2: two-state reaction model, mean of n = 5; for ka2 / kd1 / kd2 / Kd / kon / koff: SPR; for ka2 / kd1 / kd2 / Kd: pH 7.4, 25°C; for Kd: calculated from the individual rate constants (Equation 1); for Kd / kon / koff: n = 5; for kon: calculated as koff/KD (Equation 3), read-out: kon (global association rate constant to final complex); for koff: calculated from the individual rate constants (Equation 2), read-out: koff (global dissociation rate constant of final complex)
T1 construct: bovine type I atelocollagen (=pepsin-treated type I collagen; Matrix Bioscience); purchased Matrix Bioscience
T1 sequence (P02453 178-1191 limits assumed, stated change not applied): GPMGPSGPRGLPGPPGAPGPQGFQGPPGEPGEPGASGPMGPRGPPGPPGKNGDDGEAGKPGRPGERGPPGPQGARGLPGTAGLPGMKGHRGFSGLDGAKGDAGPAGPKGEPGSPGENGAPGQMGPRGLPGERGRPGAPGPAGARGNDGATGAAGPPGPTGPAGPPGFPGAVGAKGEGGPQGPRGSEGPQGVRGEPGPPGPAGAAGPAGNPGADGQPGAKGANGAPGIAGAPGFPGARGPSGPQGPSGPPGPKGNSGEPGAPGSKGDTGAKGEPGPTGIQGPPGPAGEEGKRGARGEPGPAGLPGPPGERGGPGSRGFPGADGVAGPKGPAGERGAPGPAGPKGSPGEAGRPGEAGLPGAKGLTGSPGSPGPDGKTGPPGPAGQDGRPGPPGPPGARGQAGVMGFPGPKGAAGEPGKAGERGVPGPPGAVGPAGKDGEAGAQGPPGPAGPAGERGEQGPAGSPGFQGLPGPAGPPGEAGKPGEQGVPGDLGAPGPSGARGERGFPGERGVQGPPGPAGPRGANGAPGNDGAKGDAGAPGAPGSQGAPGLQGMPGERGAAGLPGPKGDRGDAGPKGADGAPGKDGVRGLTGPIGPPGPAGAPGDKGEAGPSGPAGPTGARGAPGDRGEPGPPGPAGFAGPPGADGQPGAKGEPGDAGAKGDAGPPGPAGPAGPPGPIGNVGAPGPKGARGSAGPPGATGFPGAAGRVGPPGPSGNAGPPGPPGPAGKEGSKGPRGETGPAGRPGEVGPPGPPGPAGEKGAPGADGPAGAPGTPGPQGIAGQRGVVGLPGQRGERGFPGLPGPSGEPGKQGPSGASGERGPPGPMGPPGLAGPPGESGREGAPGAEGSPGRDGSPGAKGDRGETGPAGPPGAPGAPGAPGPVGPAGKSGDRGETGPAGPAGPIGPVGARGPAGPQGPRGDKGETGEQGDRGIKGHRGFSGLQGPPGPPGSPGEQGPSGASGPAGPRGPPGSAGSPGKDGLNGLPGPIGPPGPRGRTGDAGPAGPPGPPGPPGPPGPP
T1 sequence (P02465 89-1102 limits assumed, stated change not applied): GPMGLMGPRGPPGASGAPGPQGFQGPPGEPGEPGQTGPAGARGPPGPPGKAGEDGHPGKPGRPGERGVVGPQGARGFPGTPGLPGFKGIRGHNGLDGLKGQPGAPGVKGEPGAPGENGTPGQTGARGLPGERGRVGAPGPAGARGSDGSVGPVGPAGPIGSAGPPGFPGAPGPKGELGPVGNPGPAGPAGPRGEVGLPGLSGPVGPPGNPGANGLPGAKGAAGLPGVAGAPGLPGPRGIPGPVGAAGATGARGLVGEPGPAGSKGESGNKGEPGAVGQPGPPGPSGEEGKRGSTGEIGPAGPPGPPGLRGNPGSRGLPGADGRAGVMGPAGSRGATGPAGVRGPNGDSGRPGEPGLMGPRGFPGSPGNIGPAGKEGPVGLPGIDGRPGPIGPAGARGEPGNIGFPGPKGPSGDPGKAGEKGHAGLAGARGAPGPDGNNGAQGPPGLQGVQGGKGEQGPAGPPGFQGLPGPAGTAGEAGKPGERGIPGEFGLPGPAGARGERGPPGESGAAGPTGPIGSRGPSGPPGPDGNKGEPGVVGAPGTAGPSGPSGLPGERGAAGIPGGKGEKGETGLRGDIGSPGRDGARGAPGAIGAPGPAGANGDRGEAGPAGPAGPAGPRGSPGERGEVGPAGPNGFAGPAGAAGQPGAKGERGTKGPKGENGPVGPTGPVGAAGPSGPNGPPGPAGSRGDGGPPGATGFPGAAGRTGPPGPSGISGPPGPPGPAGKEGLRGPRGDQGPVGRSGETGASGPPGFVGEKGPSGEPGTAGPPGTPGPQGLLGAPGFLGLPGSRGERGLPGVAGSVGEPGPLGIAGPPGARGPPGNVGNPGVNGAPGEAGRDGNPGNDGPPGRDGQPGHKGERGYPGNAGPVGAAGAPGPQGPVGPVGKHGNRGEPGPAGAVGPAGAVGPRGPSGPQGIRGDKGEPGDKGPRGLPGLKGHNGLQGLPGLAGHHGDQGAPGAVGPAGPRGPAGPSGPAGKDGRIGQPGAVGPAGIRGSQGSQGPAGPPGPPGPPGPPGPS
Method: In order to probe binding of the telopeptide derivatives to atelocollagen surface plasmon resonance (SPR) measurements were performed on a T100 Biacore system (GE Healthcare) (Hoppmann et al., [2010]). In brief, bovine type I atelocollagen (=pepsin-treated type I collagen; Matrix Bioscience) was immobilized as ligand on a CM5 (carboxymethylated dextran polymer) sensor chip using EDC/NHS chemistry. About 12,000 arbitrary response (resonance) units (RU) were immobilized. Various concentrations of the analytes (1, 2, and 4a) ranging from 45 to 950 μM were analyzed. The flow buffer used was 10 mM HEPES, 3.0 mM EDTA-Na2, 0.15 M NaCl (pH 7.4) containing 0.05% surfactant P20. Association and dissociation of all analytes was followed in real-time and measured at 25°C at a flow rate of 30 μL/min. After each cycle, the surface was regenerated using 50 mM NaOH. The data were fitted to a two-state reaction model (see scheme below) including reference subtraction and blank buffer correction derived from blank runs using the Biacore Evaluation software 2.0.4.
The parameters KD, koff, and kon were calculated from the individual rate constants by the following equations (Tummino and Copeland, [2008]): […]

[2] = biological target: bovine type I atelocollagen (pepsin-treated bovine type I collagen) (bovine); assay: SPR; Biacore T100; bovine type I atelocollagen immobilised on a CM5 chip by EDC/NHS (about 12,000 RU); peptides as analytes, 45 to 950 μM; 10 mM HEPES, 3.0 mM EDTA-Na2, 0.15 M NaCl, pH 7.4, 0.05% surfactant P20; 25°C; 30 μL/min; two-state reaction model; KD, koff and kon calculated from the individual rate constants; conditions: both partners purified

ka1 [1]: 123 M⁻¹ s⁻¹ | ka2 [1]: 0.00532 s⁻¹ | kd1 [1]: 0.75 s⁻¹ | kd2 [1]: 0.00294 s⁻¹ | Kd [1]: 2170 µM | kon [1]: 1.34 M⁻¹ s⁻¹ | koff [1]: 0.00291 s⁻¹
Molecule: CC[C@H](C)[C@H](NC(=O)CNC(=O)[C@@H](NC(=O)[C@H](CO)NC(=O)[C@H](CCCCN)NC(=O)[C@H](CCC(=O)O)NC(=O)[C@H](CC(=O)O)NC(=O)[C@H](Cc1ccc(O)cc1)NC(=O)CNC(=O)[C@H](Cc1ccc(O)cc1)NC(=O)[C@H](CO)NC(=O)[C@H](CC(C)C)NC(=O)[C@@H]1CCC(=O)N1)[C@@H](C)O)C(=O)N[C@@H](CO)C(=O)N[C@H](C(=O)N1CCC[C@H]1C(N)=O)C(C)C [Peptide 1, pGlu-LSYGYDEKSTGISVP-NH2, reference compound] ([pGlu]LSYGYDEKSTGISVP-NH2)

Kd [1]: 78.8 µM | kon [1]: 11.2 M⁻¹ s⁻¹ | koff [1]: 0.000879 s⁻¹
Molecule: CC[C@H](C)[C@H](NC(=O)CNC(=O)[C@@H](NC(=O)[C@H](CO)NC(=O)[C@H](CCCCN)NC(=O)[C@H](CCC(=O)O)NC(=O)[C@H](CC(=O)O)NC(=O)[C@H](Cc1ccc(O)cc1)NC(=O)CNC(=O)[C@H](Cc1ccc(O)cc1)NC(=O)[C@H](CO)NC(=O)[C@H](CC(C)C)NC(=O)c1ccc(F)cc1)[C@@H](C)O)C(=O)N[C@@H](CO)C(=O)N[C@H](C(=O)N1CCC[C@H]1C(N)=O)C(C)C [Peptide 2, FBz-LSYGYDEKSTGISVP-NH2] ({Benzoyl(4-F)}-LSYGYDEKSTGISVP-NH2)

ka1 [1]: 188 M⁻¹ s⁻¹ | ka2 [1]: 0.00494 s⁻¹ | kd1 [1]: 0.268 s⁻¹ | kd2 [1]: 0.00411 s⁻¹ | kon [1]: 6.15 M⁻¹ s⁻¹ | koff [1]: 0.00398 s⁻¹
Molecule: NCCCC[C@H](NC(=O)[C@@H]1CCCN1C(=O)[C@H](CC(=O)O)NC(=O)CNC(=O)CNC(=O)CNC(=O)c1ccc(F)cc1)C(=O)NCC(=O)NCC(=O)NCC(=O)NCC(=O)NCC(N)=O [Peptide 4a, FBz-GGGDPKGGGGG-NH2] ({Benzoyl(4-F)}-GGGDPKGGGGG-NH2)

Kd [2]: 2170 µM | ka1 (two-state model, step 1) [2]: 123 M⁻¹ s⁻¹ | ka2 (two-state model, step 2) [2]: 0.00532 s⁻¹ | kd1 (two-state model, step 1) [2]: 0.75 s⁻¹ | kd2 (two-state model, step 2) [2]: 0.00294 s⁻¹ | koff [2]: 0.00291 s⁻¹ | kon [2]: 1.34 M⁻¹ s⁻¹
B1: α1(I)-N-telopeptide (peptide 1), pGlu-LSYGYDEKSTGISVP-NH2 (peptide)
peptide: [pGlu]LSYGYDEKSTGISVP-NH2
SMILES: CC[C@H](C)[C@H](NC(=O)CNC(=O)[C@@H](NC(=O)[C@H](CO)NC(=O)[C@H](CCCCN)NC(=O)[C@H](CCC(=O)O)NC(=O)[C@H](CC(=O)O)NC(=O)[C@H](Cc1ccc(O)cc1)NC(=O)CNC(=O)[C@H](Cc1ccc(O)cc1)NC(=O)[C@H](CO)NC(=O)[C@H](CC(C)C)NC(=O)[C@@H]1CCC(=O)N1)[C@@H](C)O)C(=O)N[C@@H](CO)C(=O)N[C@H](C(=O)N1CCC[C@H]1C(N)=O)C(C)C
notes: N-terminal telopeptide of the α1 chain of type I collagen; also called N-terminal telopeptide of the α1 chain of type I collagen; authentic isolated α1(I)-N-telopeptide; source: synthetic peptide (microwave-assisted Fmoc solid-phase synthesis)

Kd [2]: 78.8 µM | ka1 (two-state model, step 1) [2]: 57.4 M⁻¹ s⁻¹ | ka2 (two-state model, step 2) [2]: 0.0141 s⁻¹ | kd1 (two-state model, step 1) [2]: 0.0631 s⁻¹ | kd2 (two-state model, step 2) [2]: 0.00109 s⁻¹ | koff [2]: 0.000879 s⁻¹ | kon [2]: 11.2 M⁻¹ s⁻¹
B2: 4-fluorobenzoylated α1(I)-N-telopeptide analog (peptide 2), FBz-LSYGYDEKSTGISVP-NH2 (peptide)
peptide: {Benzoyl(4-F)}-LSYGYDEKSTGISVP-NH2
SMILES: CC[C@H](C)[C@H](NC(=O)CNC(=O)[C@@H](NC(=O)[C@H](CO)NC(=O)[C@H](CCCCN)NC(=O)[C@H](CCC(=O)O)NC(=O)[C@H](CC(=O)O)NC(=O)[C@H](Cc1ccc(O)cc1)NC(=O)CNC(=O)[C@H](Cc1ccc(O)cc1)NC(=O)[C@H](CO)NC(=O)[C@H](CC(C)C)NC(=O)c1ccc(F)cc1)[C@@H](C)O)C(=O)N[C@@H](CO)C(=O)N[C@H](C(=O)N1CCC[C@H]1C(N)=O)C(C)C
notes: N-terminal telopeptide of the α1 chain of type I collagen without its N-terminal pyroglutamate, which is replaced by a 4-fluorobenzoyl residue; source: synthetic peptide (microwave-assisted Fmoc solid-phase synthesis, as in Kuchar et al., 2012)

Kd [2]: 647 µM | ka1 (two-state model, step 1) [2]: 188 M⁻¹ s⁻¹ | ka2 (two-state model, step 2) [2]: 0.00494 s⁻¹ | kd1 (two-state model, step 1) [2]: 0.268 s⁻¹ | kd2 (two-state model, step 2) [2]: 0.00411 s⁻¹ | koff [2]: 0.00398 s⁻¹ | kon [2]: 6.15 M⁻¹ s⁻¹
B3: DPK-containing undecapeptide 4a, FBz-GGGDPKGGGGG-NH2 (peptide)
chain: {Benzoyl(4-F)}-GGGDPKGGGGG-NH2
SMILES: NCCCC[C@H](NC(=O)[C@@H]1CCCN1C(=O)[C@H](CC(=O)O)NC(=O)CNC(=O)CNC(=O)CNC(=O)c1ccc(F)cc1)C(=O)NCC(=O)NCC(=O)NCC(=O)NCC(=O)NCC(N)=O
